Values of other authors, collected in publication PMC12073169.

Biological target: ATG3 (Homo sapiens) (UniProt Q9NT62)
UniProt Q9NT62, sequence (Q9NT62 whole entry): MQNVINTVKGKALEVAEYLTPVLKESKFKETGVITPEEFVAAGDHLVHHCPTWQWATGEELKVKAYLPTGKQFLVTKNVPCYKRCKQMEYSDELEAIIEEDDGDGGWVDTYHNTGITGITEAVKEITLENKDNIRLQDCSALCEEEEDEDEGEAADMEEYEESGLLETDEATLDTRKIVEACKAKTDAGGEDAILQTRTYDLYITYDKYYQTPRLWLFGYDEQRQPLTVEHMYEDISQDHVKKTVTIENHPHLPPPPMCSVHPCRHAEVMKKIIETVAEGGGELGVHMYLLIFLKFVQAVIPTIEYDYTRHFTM

Substance: ATG7 (from UniProt O95352)
- Kd: 0.35 µM
